From patent US20240238459

B1: granzyme K (enzyme, UniProt P49863 27-264, looked up, species assumed)
Granzyme K: IIGGKEVSPHSRPFMASIQYGGHHVCGGVLIDPQWVLTAAHCQYRFTKGQSPTVVLGAHSLSKNEASKQTLEIKKFIPFSRVTSDPQSNDIMLVKLQTAAKLNKHVKMLHIRSKTSLRSGTKCKVTGWGATDPDSLRPSDTLREVTVTVLSRKLCNSQSYYNGDPFITKDMVCAGDAKGQKDSCKGDSGGPLICKGVFHAIVSGGHECGVATKPGIYTLLTKKYQTWIKSNLVPPHTN
B2: C1S (enzyme, UniProt P09871 16-688, looked up, species assumed)
Complement C1s subcomponent: EPTMYGEILSPNYPQAYPSEVEKSWDIEVPEGYGIHLYFTHLDIELSENCAYDSVQIISGDTEEGRLCGQRSSNNPHSPIVEEFQVPYNKLQVIFKSDFSNEERFTGFAAYYVATDINECTDFVDVPCSHFCNNFIGGYFCSCPPEYFLHDDMKNCGVNCSGDVFTALIGEIASPNYPKPYPENSRCEYQIRLEKGFQVVVTLRREDFDVEAADSAGNCLDSLVFVAGDRQFGPYCGHGFPGPLNIETKSNALDIIFQTDLTGQKKGWKLRYHGDPMPCPKEDTPNSVWEPAKAKYVFRDVVQITCLDGFEVVEGRVGATSFYSTCQSNGKWSNSKLKCQPVDCGIPESIENGKVEDPESTLFGSVIRYTCEEPYYYMENGGGGEYHCAGNGSWVNEVLGPELPKCVPVCGVPREPFEEKQRIIGGSDADIKNFPWQVFFDNPWAGGALINEYWVLTAAHVVEGNREPTMYVGSTSVQTSRLAKSKMLTPEHVFIHPGWKLLEVPEGRTNFDNDIALVRLKDPVKMGPTVSPICLPGTSSDYNLMDGDLGLISGWGRTEKRDRAVRLKAARLPVAPLRKCKEVKVEKPTADAEAYVFTPNMICAGGEKGMDSCKGDSGGAFAVQDPNDKTKFYAAGLVSWGPQCGTYGLYTRVKNYVDWIMKTMQENSTPRED

System: T1, substrate sequence FVQWFSKFLGK (SEQ ID NO:3)
T1 sequence: FVQWFSKFLGK

Protein	protease specificity (cleavage activity; enzyme 5 nM, substrate 60 µM)
B1	the substrate sequence is highly specific for granzyme B compared to the other proteases tested
B2	the substrate sequence is highly specific for granzyme B compared to the other proteases tested
